Laboratory results as given in EP3670537A1.

Target: Claudin 18 splice variant 2 (CLDN18.2) (human)
Test: cell-based or functional assay

in vitro EC50 concentration, CDC on CLDN18.2-transfected CHO-K1 cells: 0.5 µg/mL
lysis rate, CDC on CLDN18.2-transfected CHO-K1 cells, pooled sera from healthy controls with 0.5 µg/ml IMAB362: 64.5%
lysis rate, CDC on CLDN18.2-transfected CHO-K1 cells, pre-infusion serum of patient 0204 with 0.5 µg/ml fresh IMAB362: 93.9%
Substance: IMAB362 (antibody)
in vitro EC80-100, total cytotoxicity assay on NUGC-4 cells with healthy donor PBMCs (E:T 40:1) and 25% serum: 200 µg/mL
specific killing of NUGC-4 cells by IMAB362 in patient serum 28-32 days after administration, all dose groups: > 48%
